Where a chain is given by its changes, count along the chain named.

These results are taken from patent publication US20020160955A1 (published 2002).

Common to all, as to experiment: competitive phage ELISA
For orientation: ELISA stands for enzyme-linked immunosorbent assay.

Experiment [1] addresses T1, IGF-I D20A (G1S-A70V background) displayed on phage (human; bacteriophage M13, not fully specified; Displayed monovalently on M13 phage as a C-terminal fusion to the gene III fragment, which is left out of the letters.).
T1 construct: monovalent M13 phage display; not shown: Display carrier: M13 gene III fragment (residues 249-406) and its junction
T1 chain: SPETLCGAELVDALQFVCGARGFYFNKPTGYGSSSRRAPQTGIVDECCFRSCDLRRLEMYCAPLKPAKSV
Summed up: (§1)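 Phage, normalized to a maximal ELISA signal of 0.2-0.4 per mutant, were premixed with threefold serial dilutions of soluble competitor in 0.5% Tween 20/PBS and incubated 1 h at room temperature on immobilized target.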

For experiment [2], the target named is T2, IGF-I E46A (G1S-A70V background) displayed on phage (human; bacteriophage M13).
T2 construct: monovalent M13 phage display
T2 chain: T1 chain with A20D, E46A
Summed up:
as §1

The target of experiment [3] is T3, IGF-I P66A (G1S-A70V background) displayed on phage (human; bacteriophage M13).
T3 construct: monovalent M13 phage display; not shown: M13 gene III protein fragment (residues 249-406), the phage display carrier, and its junction to IGF-I
Summed up:
as §1

Experiment [4] addresses T4, IGF-I S1A (G1S-A70V background) displayed on phage (human; bacteriophage M13).
T4 construct: range 249-406; monovalent M13 phage display
Summed up:
as §1

The target of experiment [5] is T5, IGF-I S35A (G1S-A70V background) displayed on phage (human; bacteriophage M13).
T5 construct: monovalent M13 phage display
T5 chain: T1 chain with A20D, S35A
Summed up: as §1

Experiment [6] has as its target T6, IGF-I E3A (G1S-A70V background) displayed on phage (human; bacteriophage M13, UniProt P69168 267-424).
T6 chain: T1 chain with E3A, A20D
A digest of the protocol: as §1

Experiment [7] addresses T7, Ala(1-3)-IGF-I displayed on phage (human; bacteriophage M13, UniProt P69168 267-424).
T7 chain: T1 chain with S1A, P2A, E3A, A20D
Summed up:
as §1

Experiment [8] has as its target T8, IGF-I N26A (G1S-A70V background) displayed on phage (human; bacteriophage M13, not fully specified; Displayed monovalently on M13 phage as a C-terminal fusion to the gene III fragment, which is left out of the letters.).
T8 construct: monovalent M13 phage display; not shown: Display carrier: M13 gene III fragment (residues 249-406) and its junction
T8 chain: T1 chain with A20D, N26A
A digest of the protocol: as §1

Experiment [9] addresses T9, IGF-I G1S-A70V displayed on phage (human; bacteriophage M13).
T9 construct: monovalent M13 phage display; template of the alanine scan; also called G1S-A70V IGF-I; wild-type-like IGF-I variant; not shown: M13 gene III fragment (residues 249-406, display partner) and the junction to it
A digest of the protocol: as §1

Experiment [10] deals with T10, IGF-I D45A (G1S-A70V background) displayed on phage (human; bacteriophage M13).
T10 construct: monovalent M13 phage display
T10 chain: T1 chain with A20D, D45A
Summed up:
as §1

In experiment [11] the target is T11, IGF-I Q40A (G1S-A70V background) displayed on phage (human; bacteriophage M13).
T11 construct: monovalent M13 phage display
T11 chain: T1 chain with A20D, Q40A
A digest of the protocol: as §1

The target in experiment [12] is T12, IGF-I K68A (G1S-A70V background) displayed on phage (human; bacteriophage M13, UniProt P69168 267-424).
T12 chain: T1 chain with A20D, K68A
A digest of the protocol:
as §1

For experiment [13], the target named is T13, IGF-I L54A (G1S-A70V background) displayed on phage (human; bacteriophage M13).
T13 construct: monovalent M13 phage display
T13 chain: T1 chain with A20D, L54A
A digest of the protocol:
as §1

Experiment [14] has as its target T14, IGF-I L57A (G1S-A70V background) displayed on phage (human; bacteriophage M13).
T14 construct: monovalent M13 phage display; not shown: M13 gene III protein fragment (residues 249-406), the phage display carrier, and its junction to IGF-I
T14 chain: T1 chain with A20D, L57A
Summed up: as §1

Experiment [15] addresses T15, IGF-I S51A (G1S-A70V background) displayed on phage (human; bacteriophage M13).
T15 construct: monovalent M13 phage display
T15 chain: T1 chain with A20D, S51A
Summed up: as §1

B1: human IGFBP-1 (other, UniProt P08833 26-259, looked up)
chain: APWQCAPCSAEKLALCPPVSASCSEVTRSAGCGCCPMCALPLGAACGVATARCARGLSCRALPGEQQPLHALTRGQGACVQESDASAPHAAEAGSPESPESTEITEEELLDNFHLMAPSEEDHSILWDAISTYDGSKALHVTNIKKWKEPCRIELYRVVESLAKAQETSGEEISKFYLPNCNKNGFYHSRQCETSMDGEAGLCWCVYPWNGKRIPGSPEIRGDPNCQIYFNVQN
notes: secreted recombinant protein purified from conditioned medium
Take B1: the IC50 in experiment [1] amounted to 8.4 nM; in experiment [2], 7.9 nM; in [3], 9.4 nM; in experiment [4] it was 5.2 nM; in [5], 11.7 nM; in [6], 278 nM. In addition, the IC50 in [7] amounted to 90.4 nM; in experiment [8], 9.1 nM; in experiment [9], 8.2 nM; in experiment [10] it was 4.7 nM; in experiment [11], 10.2 nM; in experiment [12], 10.5 nM. Besides, the results for the IC50 in [13], in experiment [14] and in experiment [15] were 23.1 nM, 21.8 nM and 13.4 nM, respectively.

The term IC50 denotes the concentration that gives 50% inhibition. The low end stands for higher potency, the high end for lower potency.
